Data reported in the domain aggregation screens of Martell et al. (2025).

Experiment: soluble fraction after stress (log2 fold change); higher = more stays soluble; pooled small domains, quantitative proteomics
Details: stress: 50 degC
Method in brief: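 The measure of aggregation propensity here is the base-two logarithm of the fold change in the soluble amount of each protein after stress. A higher value means more of that protein stays in solution. Stress was applied at 50°C to pooled libraries of small protein domains, read out by high-throughput quantitative proteomics.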

Sequence | soluble fraction (log2)
HMQEERLTFDTLLGISGIGPRLALAVLSRFTPGSLAAAVDAGDTKAFSAVPGVGNRTASRIILELKGKL | -0.771
HMTMPDFGYMRVSYAEARRQLQAIGISVSTIEKVEDPSHTSATGDMVISQYPAAGSKIEGTVTLYVSVAS | -0.779
HMNTDEYEQKRGEILDAAQRLIYTKGYERMSIQDILDELKISKGAFYHYFDSKQSLLEALTARMMTE | -0.101
HMDFDFHALGREIKRKRKDKGWTQEYLAQLLDRTPRSIMYMENRGQHPSLNILFKIATLLEISIDQFFF | 0.194
HMNDEQFAIAKNDLLLSLYDGKEVNNSAAEYIIAWESLEKSPSDYISSQLKNTAESIIKISFD | 0.0499
HMVDKNDLTAIDGIGPFLEKKLNDVGVFTYADIAGWDAAKIEEITQQISFFEGRIEKDDWVGQAQKLIDDQ | -0.157
HMQSMSADDWSEKARVLMSAGIIVMGQEAKEKILNLKSLVPLIEAASASNVSMIDSRTFDELLMIIP | -1.26
HMRLPNGYGGVTKLSGRRRKPYMVRKTIGWHIDEKTDKKVQDYVVIGYAATKSEALQMLADYNNNPFDV | -3.2
HMYSDQRMEIFLEHLPDFIEQLSHKHVTRQMVWEDYRMIYPDGYGKSQFFFHLAQNLKAQKP | -3.3
HMGGRSARVRRAVLDAVVELLGEGGVRAVTIAEVAKRSGVNASSIYRRWRSIDALILDAAQDL | -1.81
HMQVPDLYRTLGVGRDATTEAIEAAYVGWQARLSAGEPISTQEWERLRYAHEVLSNPQRRSLYDSLVAET | 0.0709
HMNKYQFESKIHIYRATKRMTQQELADLVGVSRQTIMQLERNRYNPSMMLAYGIAKVFDVTIEDLFDFSEV | -2.05
HMKQLQIPYSFAKRHGVLLRYEGDQAFIVRRDNTSMLALQEARRLLGHPAHYLLYSEQEFNQLLSASFA | -2.7
HMLRPEEMIYHEMLDAILDRRLEPGMKLVEEDLAKTFGVSRARIRATFLQLAHDKLINLVPNRGAFVAEP | -1.77
HMQMPLTMATMGEVNKIVKVGGNEETRRFLANLGFVAGAEVVVLSKIGGNVIVNVKDSRVAVNEDMARHIM | -0.997
HMRITRREQQVLHLLAMGMTTREIAGHINLTERTVRNRISNLRDKLGAQTASQLLAKAVAQGLIEP | -2.02
HMQELKWERNYKLVQDYIKQYGVLPSKNTKYANVSIGRWLTNQHELVKEDNLAPERFEKIKELDT | -0.233
HMEMSLGEKLKQARLTKNFSQEYMAEVLQISQKTYSNFENNKTKPDFSQIEEISKVLETSILEFLT | -0.152
HMTLAEEFNNLNGKVITRETLESLLVKAEKEQNSTISNRIRKVLQAYTADTFLIELQHTESA | 0.0776
HMDTLTRAMVWTIIARAEGVDTTGGATWYAKAQEWVTAKGISDGENPNAAITRQELVTMLYRLAGEPAV | -2.78
HMQGENDVTIDPKKLTIGDLAKEISKIEDSEELNNILVAEKEGKGRKGAINAITERIENVSGGTG | 0.133
HMQEEFVAPDVKDGAIVLHKAFGEGTVTKIDKAQKHIRVTFGVGEKTFIFPDAFKQGFLRMKG | 0.348
HMEHTPYLTEREADVVRLLVSGLDTAQIAQRLGIKTATVTAHKKHIFLKIGVRNTTQLVAWALIR | -2.34
HMKKYEFIEDLPGVGPATAQKLRDLGYHTVESLAMATARELEPIGVGEKKAFSMIEAARSAIGFS | 0.283
HMPSREDFAYDSIKEAILSGELLPNQKISLSDLANKLGISIIPVNSAVGRLVAEGLVRQDPHHSPYVV | 0.345

Sequence | soluble fraction (log2)
HMSTMTGTVDTPGASLNVRTGAWGPIVGQLAHGSKVTIIGSSGDWFKISYNGATRYVHKNYVNTT | -0.153
HMDGMNEELYQKFFALVGNPDEGKRISQAKAAQALGYSSAVVSAYKNRTYNGNIKAFEDAVQAWLKREERR | 0.000413
HMIRDTTMYPVSVNGKKRYEWTVSKSISDDELKQQVLELEEIKKWIEGHEIKKLIFVPGRAINIV | -0.69
HMLDLPVKTINGKQYYYYTVKKGDTVYSLITRFGITRSDLVESNPAAADVLKTGDTLYFAVDKFG | -0.0825
HMDRDPAEAGYDDGYLSGNTDGMNNDERATYDESSQYPTPDERQSYAAAYRRGYAAGFADGRKQAV | 0.134
HMFDGVAAGKPAILDALEDAGGFLPLNSKSSVEEIQASFSFSKRVFKQLIGMLYKERKIVITDDGIRLAD | -0.352
HMEAKKVIAVHIIGEINKPGIVELEEGARVIDAIKKAGGTTEKADLAQINLAYILKDGQKIYIPNTEDN | 0.0276
HMSVEVPNLIGKTLDQVDIDLKSLDLSFVILDSARYNSSFKPLSVIDHQPISGAKVKVNRKIYLTINPS | -0.445
HMQGEASDAQLKAIFAIARKLGITDDFEVHRKASRLAGVPEPEVLPSLKSLTYAQASAVIKALQEELE | 0.084
HMGVIGADIRALRVSRGWTLSDLAEALDRSVGWLSQVERDVSEPALADIRRIAGIFDLPVSFFFSD | -2.86
HMQLTDSDFTRLYTYVKNSYGIDLSKKKQLISSRLTNMLIQQGYRDFTQYTDEIISGKNPEMVSAMLNRLT | -0.232
HMASITLDQAKEIALTHAGQTADAVWFEKAEQDYDDGILVYELEFAAKGTEYEYEIDAQTGAIREYKWDD | -0.0142
HMNNIYFSPVVEENNKGLRLDKFLAASFPEFSRSQLQRLILEGNVSNDDVVIADNSQKVRVGDSFQVIVPE | -0.0377
HMAMYSREKLKKLREDRGLTQYELAKIAGISVVTLNKIESSDSAKPFVKTLNKIAQALGVGIDELS | -0.127
HMQKWILVNKQGRLSGILDHRAFNTRESATAWFQRTSDISGGTIKIDDYYYVLKNEEYKLLKE | -3.15
HMSFSTHHEYYIYNLAVDMRKGYDGLSGLVVNELGRQPWDGSVYVFFNTMRDKVKLLVWDTDGYVIYSKR | 0.279
HMSPLPDRESLGAIEKLISLLGSSEWTVREKATRELGAFGYLARPVLQRELATSGDPEVSRRLERILSNL | -0.332
HMALKSYEDMVGKTGVAYTVLRPSGKVIINDELFDATARSGMIEKGNEVIIYDYKNAQLIVEK | 0.0774
HMTPAIEKTAVIVFINGKKYYVHTVKSGETLYSIAKAYKVDEKVIKEHNPNVADGLRIDQTVKIPVPEQVK | 0.144
HMNLEQTIVLGKRLFNNALDTLGKKQRSIKNKQINKLLELLNFKNMNELYQSIGVGDKNPLLMAQMML | -0.458
HMIKLSEAEWKVMKLLWEESPKTMMQITNLLKETTGWTKHTVMTFLKRMEEKKAIHYEEGGRAKLYYP | -0.589
HMETIVGIDPDSKKKIVLKKGIKGRPDYLSFNKKNYSLPSELKEKNVSLEQALEIINDKKSNKKKIK | 0.334
HMDRTLTYTVSIEESDLRADQFLSRRGFSSHLLTRLRKNMEHLLINGTPSRTNTHLHEGDILTVHIVEE | -0.479
HMATTTEPTSPPAATASLEAKINWLFLIFRNKKTVTASEQKFHAEDASTVVGKETLTDDGTTMTKGETAAG | 0.0862
HMNKIDVVEVDMSKPYEDMTVTELQNVILGKLASNGPVTDQMKKDVAENIYHDSLVNWAKSF | 0.505
